Test results taken from publication PMC11370617.

Columns and labels:
[1] = biological target: Mus musculus arginyltransferase 1 isoform 1 (MmATE1-1), affinity tag cleaved, apo (Mus musculus) (UniProt Q9Z2A5); assay: SEC-MALS
[2] = biological target: Mus musculus arginyltransferase 1 isoform 1 (MmATE1-1), affinity tag intact, apo (Mus musculus) (UniProt Q9Z2A5); assay: SEC-MALS

## Mus musculus arginyltransferase 1 isoform 1 (MmATE1-1), affinity tag cleaved, apo (from UniProt Q9Z2A5 1-516) (enzyme)
[1]
  percent of the total protein that is dimeric: < 20%

## Mus musculus arginyltransferase 1 isoform 1 (MmATE1-1), affinity tag intact, apo (from UniProt Q9Z2A5 1-516) (enzyme)
[2]
  percent of the total protein that is dimeric: < 20%
